Experimental data as given in IntAct's records for PubMed 22020124.

B1: Centrosomal P4.1-associated protein (Homo sapiens), Q9HC77 (parent)
chain: MFLMPTSSELNSGQNFLTQWMTNPSRAGVILNRGFPILEADKEKRAAVDISTSFPIKGTHFSDSFSFINEEDSLLEEQKLESNNPYKPQSDKSETHTAFPCIKKGPQVAACHSAPGHQEENKNDFIPDLASEFKEGAYKDPLFKKLEQLKEVQQKKQEQLKRQQLEQLQRLMEEQEKLLTMVSGQCTLPGLSLLPDDQSQKHRSPGNTTTGERATCCFPSYVYPDPTQEETYPSNILSHEQSNFCRTAHGDFVLTSKRASPNLFSEAQYQEAPVEKNNLKEENRNHPTGESILCWEKVTEQIQEANDKNLQKHDDSSEVANIEERPIKAAIGERKQTFEDYLEEQIQLEEQELKQKQLKEAEGPLPIKAKPKQPFLKRGEGLARFTNAKSKFQKGKESKLVTNQSTSEDQPLFKMDRQQLQRKTALKNKELCADNPILKKDSKARTKSGSVTLSQKPKMLKCSNRKSLSPSGLKIQTGKKCDGQFRDQIKFENKVTSNNKENVTECPKPCDTGCTGWNKTQGKDRLPLSTGPASRLAAKSPIRETMKESESSLDVSLQKKLETWEREKEKENLELDEFLFLEQAADEISFSSNSSFVLKILERDQQICKGHRMSSTPVKAVPQKTNPADPISHCNRSEDLDHTAREKESECEVAPKQLHSLSSADELREQPCKIRKAVQKSTSENQTEWNARDDEGVPNSDSSTDSEEQLDVTIKPSTEDRERGISSREDSPQVCDDKGPFKDTRTQEDKRRDVDLDLSDKDYSSDESIMESIKHKVSEPSRSSSLSLSKMDFDDERTWTDLEENLCNHDVVLGNESTYGTPQTCYPNNEIGILDKTIKRKIAPVKRGEDLSKSRRSRSPPTSELMMKFFPSLKPKPKSDSHLGNELKLNISQDQPPGDNARSQVLREKIIELETEIEKFKAENASLAKLRIERESALEKLRKEIADFEQQKAKELARIEEFKKEEMRKLQKERKVFEKYTTAARTFPDKKEREEIQTLKQQIADLREDLKRKETKWSSTHSRLRSQIQMLVRENTDLREEIKVMERFRLDAWKRAEAIESSLEVEKKDKLANTSVRFQNSQISSGTQVEKYKKNYLPMQGNPPRRSKSAPPRDLGNLDKGQAASPREPLEPLNFPDPEYKEEEEDQDIQGEISHPDGKVEKVYKNGCRVILFPNGTRKEVSADGKTITVTFFNGDVKQVMPDQRVIYYYAAAQTTHTTYPEGLEVLHFSSGQIEKHYPDGRKEITFPDQTVKNLFPDGQEESIFPDGTIVRVQRDGNKLIEFNNGQRELHTAQFKRREYPDGTVKTVYANGHQETKYRSGRIRVKDKEGNVLMDTEL
partner: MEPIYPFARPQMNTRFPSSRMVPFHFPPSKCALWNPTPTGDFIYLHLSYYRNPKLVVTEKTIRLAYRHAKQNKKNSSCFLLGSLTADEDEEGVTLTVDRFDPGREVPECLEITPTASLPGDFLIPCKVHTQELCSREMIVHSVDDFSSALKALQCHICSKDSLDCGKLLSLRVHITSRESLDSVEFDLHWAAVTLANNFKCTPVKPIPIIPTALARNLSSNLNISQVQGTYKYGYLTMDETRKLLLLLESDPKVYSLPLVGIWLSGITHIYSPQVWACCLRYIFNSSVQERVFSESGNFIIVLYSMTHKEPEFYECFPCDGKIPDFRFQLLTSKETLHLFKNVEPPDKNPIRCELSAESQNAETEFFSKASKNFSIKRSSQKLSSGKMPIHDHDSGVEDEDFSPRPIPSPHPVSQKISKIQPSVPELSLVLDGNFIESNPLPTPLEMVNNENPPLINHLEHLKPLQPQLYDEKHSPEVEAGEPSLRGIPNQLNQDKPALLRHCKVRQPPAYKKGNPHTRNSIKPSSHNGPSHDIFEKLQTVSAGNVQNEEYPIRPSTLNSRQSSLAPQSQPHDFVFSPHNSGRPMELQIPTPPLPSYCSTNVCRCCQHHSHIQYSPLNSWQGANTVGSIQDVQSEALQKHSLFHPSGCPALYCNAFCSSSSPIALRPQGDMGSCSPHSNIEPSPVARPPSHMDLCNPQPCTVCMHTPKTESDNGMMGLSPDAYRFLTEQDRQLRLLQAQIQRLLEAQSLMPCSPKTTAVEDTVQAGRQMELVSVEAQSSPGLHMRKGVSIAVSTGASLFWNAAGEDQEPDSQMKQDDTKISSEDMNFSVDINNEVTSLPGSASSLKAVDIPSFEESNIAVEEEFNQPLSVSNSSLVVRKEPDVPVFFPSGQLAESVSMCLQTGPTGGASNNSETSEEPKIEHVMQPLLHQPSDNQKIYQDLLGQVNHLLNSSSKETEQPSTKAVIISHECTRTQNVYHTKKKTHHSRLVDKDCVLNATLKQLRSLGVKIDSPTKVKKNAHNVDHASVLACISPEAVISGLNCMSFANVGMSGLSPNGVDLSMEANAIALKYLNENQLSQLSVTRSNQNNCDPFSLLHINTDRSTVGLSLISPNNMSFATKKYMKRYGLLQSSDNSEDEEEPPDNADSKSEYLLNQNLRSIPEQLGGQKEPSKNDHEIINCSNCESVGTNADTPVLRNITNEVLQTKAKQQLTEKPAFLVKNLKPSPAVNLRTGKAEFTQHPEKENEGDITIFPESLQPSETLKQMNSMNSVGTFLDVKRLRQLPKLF

Variants of: B1
Conditions: with stil_human STIL

Variant | effect of a mutation on the interaction
E1235V | decreasing interaction

Variants of: B1
Conditions: with stil_human STIL
Remark: another data set of the same source

Variant | effect of a mutation on the interaction
E1235V | disrupting interaction
